Here are results for one substance from publication PMC6769641.

Experiment [1] has as its target catalase from sweet pepper (Capsicum annuum L.) fruits (Capsicum annuum (endogenous in sweet pepper fruits)) (UniProt Q9M5L6). The experiment is described as follows: SEC; FPLC gel filtration on Superose 12 in 50 mM Tris-HCl, pH 8.0; ammonium sulfate fraction (20-80%) of green pepper fruit extract; catalase activity followed in fractions; column calibrated with rubisco, ferritin, aldolase, phosphorylase b and myoglobin.

Experiment [2] shares this target. The experiment is described as follows: native gel or EMSA; Hedrick and Smith method: non-denaturing PAGE at 5-7% acrylamide, catalase activity staining in gels; BSA monomer, dimer, trimer and tetramer as molecular weight standards. A general note: Mobility shift assays separate free from complexed probe on a gel.

For the substance “catalase from sweet pepper (Capsicum annuum L.) fruits (from UniProt Q9M5L6 1-492) (enzyme)”, the stoichiometry N in experiment [1] and in experiment [2] was 2 throughout.
